Article PMC10397247
Where two headings read alike, the source gives them in different places.

Assays:
Experiment in all cases: two-hybrid library CCNG1;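 further: natural log of median RNA to DNA barcode read ratio; higher means stronger binding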
O6-bN = biological target: T1, O6-bN
T1 chain: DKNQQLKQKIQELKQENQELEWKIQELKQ

O2-bN = biological target: T2, O2-bN
T2 chain: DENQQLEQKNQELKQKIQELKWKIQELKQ

O9-bN = biological target: T3, O9-bN
T3 chain: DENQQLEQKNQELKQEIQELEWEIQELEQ

O8-bN = biological target: T4, O8-bN
T4 chain: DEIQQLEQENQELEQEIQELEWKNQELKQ

O16-bN = biological target: T5, O16-bN
T5 chain: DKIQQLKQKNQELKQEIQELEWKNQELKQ

O5-bN = biological target: T6, O5-bN
T6 chain: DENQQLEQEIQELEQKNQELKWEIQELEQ

O3-bN = biological target: T7, O3-bN
T7 chain: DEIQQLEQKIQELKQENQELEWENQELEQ

O4-bN = biological target: T8, O4-bN
T8 chain: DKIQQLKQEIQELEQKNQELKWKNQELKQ

O7-bN = biological target: T9, O7-bN
T9 chain: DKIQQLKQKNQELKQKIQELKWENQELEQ

O15-bN = biological target: T10, O15-bN
T10 chain: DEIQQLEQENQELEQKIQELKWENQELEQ

4H607-bA = biological target: T11, 4H607-bA
T11 chain: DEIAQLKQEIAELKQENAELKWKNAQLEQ

4H855-bA = biological target: T12, 4H855-bA
T12 chain: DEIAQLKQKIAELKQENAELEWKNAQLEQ

4H4073-bA = biological target: T13, 4H4073-bA
T13 chain: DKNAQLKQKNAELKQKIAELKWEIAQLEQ

4H3855-bA = biological target: T14, 4H3855-bA
T14 chain: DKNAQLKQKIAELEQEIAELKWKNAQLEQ

4H3782-bA = biological target: T15, 4H3782-bA
T15 chain: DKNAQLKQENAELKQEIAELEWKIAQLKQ

4H346-bA = biological target: T16, 4H346-bA
T16 chain: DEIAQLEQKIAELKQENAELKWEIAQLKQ

4H754-bA = biological target: T17, 4H754-bA
T17 chain: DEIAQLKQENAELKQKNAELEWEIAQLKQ

4H687-bA = biological target: T18, 4H687-bA
T18 chain: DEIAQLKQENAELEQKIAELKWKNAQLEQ

4H683-bA = biological target: T19, 4H683-bA
T19 chain: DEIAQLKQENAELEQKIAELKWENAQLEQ

4H780-bA = biological target: T20, 4H780-bA
T20 chain: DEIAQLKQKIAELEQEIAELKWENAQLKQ

4H953-bA = biological target: T21, 4H953-bA
T21 chain: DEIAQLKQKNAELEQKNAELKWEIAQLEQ

4H968-bA = biological target: T22, 4H968-bA
T22 chain: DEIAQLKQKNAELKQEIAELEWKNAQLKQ

4H72-bA = biological target: T23, 4H72-bA
T23 chain: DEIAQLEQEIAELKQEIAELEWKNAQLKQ

4H457-bA = biological target: T24, 4H457-bA
T24 chain: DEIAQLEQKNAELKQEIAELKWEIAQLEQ

4H3427-bA = biological target: T25, 4H3427-bA
T25 chain: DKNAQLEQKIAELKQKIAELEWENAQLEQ

4H454-bA = biological target: T26, 4H454-bA
T26 chain: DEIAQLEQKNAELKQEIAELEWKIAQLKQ

4H3926-bA = biological target: T27, 4H3926-bA
T27 chain: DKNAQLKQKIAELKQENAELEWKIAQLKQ

4H918-bA = biological target: T28, 4H918-bA
T28 chain: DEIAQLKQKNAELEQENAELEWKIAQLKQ

4H568-bA = biological target: T29, 4H568-bA
T29 chain: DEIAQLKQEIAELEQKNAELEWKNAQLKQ

4H908-bA = biological target: T30, 4H908-bA
T30 chain: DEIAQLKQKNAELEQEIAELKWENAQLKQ

4H883-bA = biological target: T31, 4H883-bA
T31 chain: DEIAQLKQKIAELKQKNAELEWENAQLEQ

4H967-bA = biological target: T32, 4H967-bA
T32 chain: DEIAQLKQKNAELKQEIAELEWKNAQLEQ

4H717-bA = biological target: T33, 4H717-bA
T33 chain: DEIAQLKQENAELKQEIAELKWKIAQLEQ

P7bH1 = biological target: T34, P7bH1
T34 chain: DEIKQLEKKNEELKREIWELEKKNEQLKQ

4H797-bA = biological target: T35, 4H797-bA
T35 chain: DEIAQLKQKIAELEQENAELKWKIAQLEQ

4H575-bA = biological target: T36, 4H575-bA
T36 chain: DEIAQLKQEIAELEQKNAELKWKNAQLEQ

4H4001-bA = biological target: T37, 4H4001-bA
T37 chain: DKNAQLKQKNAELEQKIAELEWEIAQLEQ

P9mS = biological target: T38, P9mS
T38 chain: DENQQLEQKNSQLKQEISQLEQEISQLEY

P7mS = biological target: T39, P7mS
T39 chain: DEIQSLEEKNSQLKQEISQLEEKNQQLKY

P8mS = biological target: T40, P8mS
T40 chain: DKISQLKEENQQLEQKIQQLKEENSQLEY

4H3277-bA = biological target: T41, 4H3277-bA
T41 chain: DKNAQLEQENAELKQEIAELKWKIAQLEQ

4H3162-bH = biological target: T42, 4H3162-bH
T42 chain: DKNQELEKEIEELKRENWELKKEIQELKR

4H2503-bA = biological target: T43, 4H2503-bA
T43 chain: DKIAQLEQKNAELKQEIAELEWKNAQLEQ

4H2692-bA = biological target: T44, 4H2692-bA
T44 chain: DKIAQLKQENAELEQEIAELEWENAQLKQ

4H348-bA = biological target: T45, 4H348-bA
T45 chain: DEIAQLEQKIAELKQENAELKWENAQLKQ

4H492-bA = biological target: T46, 4H492-bA
T46 chain: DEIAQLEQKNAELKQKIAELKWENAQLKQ

4H3057-bA = biological target: T47, 4H3057-bA
T47 chain: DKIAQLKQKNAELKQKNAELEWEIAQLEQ

4H2717-bA = biological target: T48, 4H2717-bA
T48 chain: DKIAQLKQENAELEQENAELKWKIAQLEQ

4H741-bA = biological target: T49, 4H741-bA
T49 chain: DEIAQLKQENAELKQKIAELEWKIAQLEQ

4H319-bA = biological target: T50, 4H319-bA
T50 chain: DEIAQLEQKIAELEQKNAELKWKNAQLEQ

4H477-bA = biological target: T51, 4H477-bA
T51 chain: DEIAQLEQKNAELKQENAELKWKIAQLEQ

4H2839-bA = biological target: T52, 4H2839-bA
T52 chain: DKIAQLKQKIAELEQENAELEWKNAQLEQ

4H2588-bA = biological target: T53, 4H2588-bA
T53 chain: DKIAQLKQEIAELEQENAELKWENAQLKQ

4H40-bA = biological target: T54, 4H40-bA
T54 chain: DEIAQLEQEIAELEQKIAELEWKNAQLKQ

4H2915-bA = biological target: T55, 4H2915-bA
T55 chain: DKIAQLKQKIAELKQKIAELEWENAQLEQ

O15-bH = biological target: T56, O15-bH
T56 chain: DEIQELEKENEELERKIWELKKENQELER

4H338-bA = biological target: T57, 4H338-bA
T57 chain: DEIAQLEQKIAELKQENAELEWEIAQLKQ

DKNQQLKQKIQELKQKNQELKWEIQELEQ [O13-bN]
interaction score (O6-bN): -0.733 | interaction score (O2-bN): -1.79 | interaction score (O9-bN): -1.61 | interaction score (O8-bN): -1.07 | interaction score (O16-bN): -1.23 | interaction score (O5-bN): -2.42 | interaction score (O3-bN): -0.827 | interaction score (O4-bN): -2.32 | interaction score (O7-bN): -1.39 | interaction score (O15-bN): -0.801

DKNAQLEQKIAELKQKIAELEWENAQLEQ [4H3427-bA]
interaction score (4H607-bA): -0.868 | interaction score (4H855-bA): -1.16 | interaction score (4H4073-bA): 0.792 | interaction score (4H3855-bA): -0.947 | interaction score (4H3782-bA): -0.499 | interaction score (4H346-bA): -1.15 | interaction score (4H754-bA; mean of both orientations): -0.767 | interaction score (4H687-bA): -1.79 | interaction score (4H683-bA): -0.996 | interaction score (4H780-bA): -1.09 | interaction score (4H953-bA): -1.25 | interaction score (4H968-bA): -0.904 | interaction score (4H72-bA): 0.449 | interaction score (4H457-bA): -1.11 | interaction score (4H3427-bA): 0.0593 | interaction score (4H454-bA): -0.617 | interaction score (4H3926-bA): -0.817 | interaction score (4H918-bA): -0.926 | interaction score (4H568-bA): 0.738 | interaction score (4H908-bA): -0.823 | interaction score (4H883-bA): -0.625 | interaction score (4H967-bA): -1.02 | interaction score (4H717-bA): -1.4 | interaction score (O15-bN): -0.0232 | interaction score (P7bH1): -0.632 | interaction score (4H797-bA): -0.827 | interaction score (4H575-bA): 0.0418 | interaction score (4H4001-bA): -0.314

DEIQSLEEKNSQLKQEISQLEEKNQQLKY [P7mS]
interaction score (P9mS): 0.076 | interaction score (P7mS): -0.531 | interaction score (P8mS): 1.28

DEIQQLEQENQELEQKIQELKWENQELEQ [O15-bN]
interaction score (O6-bN): -0.314 | interaction score (O2-bN): -1.5 | interaction score (O9-bN): -0.491 | interaction score (O8-bN): -1.62 | interaction score (O16-bN): 1.92 | interaction score (O5-bN): -0.822 | interaction score (O3-bN): -0.189 | interaction score (O4-bN): 0.275 | interaction score (O7-bN): 1.29 | interaction score (O15-bN): -0.195

DKIAQLEQKNAELKQEIAELEWKNAQLEQ [4H2503-bA]
interaction score (4H3277-bA): -0.659 | interaction score (4H3162-bH): -2.22 | interaction score (4H687-bA): 1.12 | interaction score (4H2503-bA): -0.591 | interaction score (4H2692-bA): 0.466 | interaction score (4H348-bA): -1.13 | interaction score (4H492-bA): -0.351 | interaction score (4H3057-bA): -0.42 | interaction score (4H2717-bA): -0.684 | interaction score (4H741-bA): -0.407 | interaction score (4H319-bA): -1.63 | interaction score (4H477-bA): -0.816 | interaction score (4H2839-bA): -0.791 | interaction score (4H2588-bA): -0.447 | interaction score (4H40-bA): -0.475 | interaction score (4H2915-bA): -0.804

DENQQLEQEIQELEQENQELEWKIQELKQ [O14-bN]
interaction score (O6-bN): 0.642 | interaction score (O2-bN): 0.0465 | interaction score (O9-bN): -0.149 | interaction score (O8-bN): -1.68 | interaction score (O16-bN): 1.69 | interaction score (O5-bN): -0.308 | interaction score (O3-bN): 0.477 | interaction score (O4-bN): -1.01 | interaction score (O7-bN): 1.78 | interaction score (O15-bN): -0.117

DEIAQLEQKIAELKQENAELEWEIAQLKQ [4H338-bA]
interaction score (4H607-bA): -0.707 | interaction score (4H3855-bA): -0.445 | interaction score (4H3782-bA): -0.133 | interaction score (4H754-bA): -0.95 | interaction score (4H687-bA): -1.18 | interaction score (O15-bH): 0.0935 | interaction score (4H953-bA): -0.0976 | interaction score (4H72-bA): -0.139 | interaction score (4H3427-bA): 0.0707 | interaction score (4H454-bA): 2.01 | interaction score (4H918-bA): -1.39 | interaction score (4H568-bA): 0.415 | interaction score (4H908-bA): -0.695 | interaction score (4H883-bA): -0.973 | interaction score (4H967-bA): 0.424 | interaction score (4H717-bA): -0.573 | interaction score (4H338-bA): 0.363 | interaction score (4H797-bA): -0.317 | interaction score (4H4001-bA): 0.217
